Test results from patent US20260274955A1 (JANUX THERAPEUTICS, published 2026).

molecular target: T1, Anti-CD28 Fab (SEQ ID NOs: 202, 203); experiment: phage ELISA on captured biotinylated Fab;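 further: wells preblocked with or without CD28 antigen, then clonal phage supernatant added briefly, washed, and bound phage read out by ELISA using HRP-linked anti-M13 antibody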
T1 construct: biotinylated and captured on neutravidin coated plates in the phage ELISA
T1 sequence (VH, as listed by the source, chain 1 of 2): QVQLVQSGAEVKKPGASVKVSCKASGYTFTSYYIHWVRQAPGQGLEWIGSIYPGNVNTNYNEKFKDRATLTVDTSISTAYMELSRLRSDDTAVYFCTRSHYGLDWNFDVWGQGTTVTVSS
T1 sequence (VL, as listed by the source, chain 2 of 2): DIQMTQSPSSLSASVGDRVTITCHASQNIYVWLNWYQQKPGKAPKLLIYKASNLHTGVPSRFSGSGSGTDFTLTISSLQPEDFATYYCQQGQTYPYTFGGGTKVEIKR
Description: (§1) Clonal phage were harvested as crude supernatants and screened via standard ELISAs. […] Prior to the addition of clonal phage, wells were incubated with blocking buffer and CD28 antigen or blocking buffer alone. Without washing or aspirating, clonal phage supernatants were then added to the wells and incubated for a short time. Wells were then washed followed by detection of bound phage using a horse radish conjugated anti-M13 antibody.

Binder | Anti-CD28 Fab signal
YCAGHSVEYMAKCL [Phage-275] | 1.96
YCDGHLKEYQEKCL [Phage-299] | 1.91
YCEGHLSEYMAKCL [Phage-284] | 1.94
YCDGHMGVYYWKCL [Phage-255] | 2.01
YCDGHSHEYMEKCL [Phage-257] | 2.01
YCEGHSIQYMAKCL [Phage-252] | 2.02
YCEGHLPIYLSKCL [Phage-285] | 1.94
YCDGHLEQYRAKCL [Phage-273] | 1.96
YCDGHLVEYMSKCL [Phage-280] | 1.95
YCEGHLSQYMEKCL [Phage-281] | 1.95
YCDGHSPEHIRKCL [Phage-282] | 1.94
YCDGHEAQYMSKCL [Phage-256] | 2.01

molecular target: T2, anti-CD28 Fab (SEQ ID NOs: 202, 203); experiment: phage binding ELISA; biotinylated Fab on neutravidin plate;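 further: clonal phage supernatants added to Fab wells pretreated with CD28 antigen or with blocking buffer only, bound phage read out via HRP-linked anti-M13 antibody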
T2 construct: biotinylated and captured on neutravidin coated plates in the phage ELISA
T2 sequence (VH, as listed by the source, chain 1 of 2): as the sequence (VH, as listed by the source, chain 1 of 2) above
T2 sequence (VL, as listed by the source, chain 2 of 2): as the sequence (VL, as listed by the source, chain 2 of 2) above
Description: as §1

Binder | Anti-CD28 Fab (SEQ ID NOs: 202, 203) signal
YCAGHSSEYIWKCL [Phage-362] | 1.82
YCAGHSAEYMWKCL [Phage-433] | 1.71
YCAGHSAEYMAKCL [Phage-419] | 1.73
YCAGHSMEYMAKCL [Phage-435] | 1.71
YCEGHSPMYMQKCM [Phage-355] | 1.83
YCDGHAEEYMSKCL [Phage-309] | 1.9
YCDGHLPMYFAKCM [Phage-351] | 1.83
YCDGHVQEYMQKCL [Phage-397] | 1.76
YCHGHLQEYMAKCL [Phage-398] | 1.76
YCDGHIPEYLAKCL [Phage-391] | 1.76
YCDGHKPQYMEKCL [Phage-394] | 1.76
YCDGHVEPYLSKCL [Phage-393] | 1.76
YCDGHIGEYMVKCL [Phage-395] | 1.76
YCEGHAIEYLAKCL [Phage-409] | 1.74
YCDGHLPEYIFKCL [Phage-416] | 1.73
YCDGHSSMYMAKCL [Phage-361] | 1.82
YCDGHLPLYMHKCL [Phage-357] | 1.82
YCEGHLAQYMWKCL [Phage-300] | 1.91
YCEGHLAQYMNKCL [Phage-396] | 1.76
YCDGHAPVYMAKCL [Phage-400] | 1.75
YCDGHAEKYMQKCL [Phage-408] | 1.74
YCDGHSPQYMQKCL [Phage-390] | 1.76
YCDGHSPEYMNKCL [Phage-399] | 1.75
YCEGHLPEYMQKCL [Phage-404] | 1.75
YCEGHLPDYMQKCL [Phage-412] | 1.73
YCSGHLPEYMGKCL [Phage-417] | 1.73
YCSGHLPEYMQKCL [Phage-403] | 1.75
YCDGHSLQYMDKCL [Phage-405] | 1.75

Binder | Anti-CD28 Fab (SEQ ID NOs: 202, 203) signal
YCDGHLSEYMAKCL [Phage-424] | 1.72
YCDGHASEYMAKCL [Phage-407] | 1.75
YCEGHSAEYIFKCL [Phage-354] | 1.83
YCDGHYPEYMSKCL [Phage-406] | 1.75
YCDGHAREYMTKCL [Phage-359] | 1.82
YCAGHLPEYLDKCL [Phage-430] | 1.71
YCDGHLEEYMVKCM [Phage-413] | 1.73
YCEGHLQTYMAKCL [Phage-414] | 1.73
YCDGHSSEYIVKCL [Phage-352] | 1.83
YCEGHAAEYMWKCL [Phage-353] | 1.83
YCEGHAQEYMSKCL [Phage-439] | 1.7
YCDGHTEEYMDKCL [Phage-360] | 1.82
YCDGHAPEYMKKCL [Phage-306] | 1.9
YCDGHSAEYMEKCI [Phage-356] | 1.83
YCAGHLEEYMDKCL [Phage-311] | 1.9
YCAGHSQEHIQKCL [Phage-415] | 1.73
YCEGHSAEYMLKCL [Phage-401] | 1.75
YCSGHSAEYMLKCL [Phage-411] | 1.73
YCEGHAPQYLNKCL [Phage-358] | 1.82
YCDGHHIEYLAKCL [Phage-402] | 1.75
YCDGHAEEYLWKCL [Phage-418] | 1.73
YCDGHEPQYLEKCL [Phage-308] | 1.9
YCDGHSQEYMWKCL [Phage-305] | 1.9
YCDGHSQEYMLKCL [Phage-392] | 1.76
YCEGHSAEFMTKCL [Phage-363] | 1.81
YCDGHSKEYMHKCL [Phage-307] | 1.9
YCDGHVEEYLYKCL [Phage-310] | 1.9
